One block for each binder: values may come before it.
Experiments:
FGFR4-Fc [1] = target: T1, FGFR4-Fc (human, UniProt P22455 22-369); assay: ELISA on FGFR family Fc fusion proteins
T1 construct: Bought from R&D Systems; not shown: human Fc
T1 sequence (looked up): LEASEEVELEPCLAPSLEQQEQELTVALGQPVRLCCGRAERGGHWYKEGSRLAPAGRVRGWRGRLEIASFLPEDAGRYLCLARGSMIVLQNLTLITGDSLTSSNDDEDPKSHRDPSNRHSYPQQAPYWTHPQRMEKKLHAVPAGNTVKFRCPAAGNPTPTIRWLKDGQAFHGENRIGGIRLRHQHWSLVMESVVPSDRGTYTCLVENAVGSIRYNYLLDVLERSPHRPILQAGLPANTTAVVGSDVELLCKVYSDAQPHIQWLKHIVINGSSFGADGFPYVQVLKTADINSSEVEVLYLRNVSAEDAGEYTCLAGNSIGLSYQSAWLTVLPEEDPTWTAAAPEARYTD

FGFR3b-Fc [2] = target: T2, FGFR3b-Fc (human, UniProt P22607-2 23-377); assay: ELISA on FGFR family Fc fusion proteins
T2 construct: Bought from R&D Systems; the IIIb form is an isoform of it; not shown: human Fc
T2 sequence (looked up): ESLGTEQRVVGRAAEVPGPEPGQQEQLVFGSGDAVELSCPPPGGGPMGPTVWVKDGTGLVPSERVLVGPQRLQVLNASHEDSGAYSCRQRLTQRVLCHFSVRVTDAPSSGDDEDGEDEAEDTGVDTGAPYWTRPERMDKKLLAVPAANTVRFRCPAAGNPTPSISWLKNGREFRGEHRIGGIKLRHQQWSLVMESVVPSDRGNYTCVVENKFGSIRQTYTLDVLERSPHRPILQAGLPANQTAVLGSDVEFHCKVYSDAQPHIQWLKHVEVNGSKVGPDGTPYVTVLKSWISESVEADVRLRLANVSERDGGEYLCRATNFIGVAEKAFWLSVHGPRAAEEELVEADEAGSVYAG

cyno FGFR2b-Fc = target: T3, cyno FGFR2b-Fc (Cynomolgus monkey); assay: ELISA, plate coated with cyno FGFR2b-Fc, anti-human IgG HRP
T3 construct: also called recombinant cyno FGFR2b-Fc; cynomolgus FGFR2b
Protocol: (§1) The cross-species binding of Ab 21c to recombinant cyno, rat/mouse, and human FGFR2b-Fc fusion proteins was conducted with ELISA. In brief, 96-well ELISA plate were coated with about 100 μl/well 0.1 μg/ml recombinant human FGFR2b-Fc, recombinant rat/mouse FGFR2b-Fc, or recombinant cyno FGFR2b-Fc protein in PBS overnight. Then the plate was blocked with 2% BSA in PBS with 0.05% Tween20 and incubation with antibody samples for 60 min at room temperature, and then washed twice in 1×TBST (Cell Signaling Technology, #9997) and followed by incubation with anti-human lgG HRP (Horseradish peroxidase) conjugate for 60 min at a room temperature. HRP activity was detected with tetra-methylbenzidine substrate (Cell Signaling Technology, #7004) and the reaction was stopped with stop solution (Cell Signaling Technology, #7002). The plate was read at 450 nm. […] Ab 21c has the highest binding affinity to rat/mouse FGFR2b, followed by human FGFR2b, and then cyno FGFR2b.

[3] = target: T4, recombinant human FGFR1b-Fc (human, UniProt P11362-19 22-376); assay: SPR (Biacore T200), hFGFR1b-Fc amine-coupled on CM5 chip, antibody as analyte
T4 construct: Bought from R&D Systems; also called hFGFR1b-Fc; not shown: human Fc
T4 sequence (looked up): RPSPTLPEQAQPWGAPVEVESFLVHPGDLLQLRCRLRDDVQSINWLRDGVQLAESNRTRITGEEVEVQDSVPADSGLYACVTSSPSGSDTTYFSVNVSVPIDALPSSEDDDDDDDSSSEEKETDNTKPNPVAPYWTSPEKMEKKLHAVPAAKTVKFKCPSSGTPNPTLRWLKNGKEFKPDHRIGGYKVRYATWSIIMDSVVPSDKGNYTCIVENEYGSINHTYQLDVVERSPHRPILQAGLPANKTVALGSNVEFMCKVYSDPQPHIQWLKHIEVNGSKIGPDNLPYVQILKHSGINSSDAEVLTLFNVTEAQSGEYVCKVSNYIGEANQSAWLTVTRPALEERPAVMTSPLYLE
Protocol: (§2) The binding of antibodies to human FGFR2b or human FGFR1b antigen was determined by surface plasmon resonance (Biacore). Briefly, CM5 sensor chip (GE Healthcare Life Sciences) was firstly activated by a 4 min injection of 1:1 freshly mixture of 50 mM N-hydroxysuccinamide (NHS): 200 mM […]. Then hFGFR2b-Fc or hFGFR1b-Fc was immobilized to activated CM5 sensor chip using Amine Coupling Kit (GE Healthcare Life Sciences) and 1M ethanolamine as the blocking reagent. About 20-30 response units (RU, 1 RU represents the binding of 1 pg of protein per square mm) of antigen protein were captured.
(§3) The association constant, dissociation constant were calculated with Biacore T200 evaluation software (version 1.0). […] In addition, Ab 21c is distinguished from the antibody FPA144 in terms of FGFR1b binding.

[4] = target: T4, recombinant human FGFR1b-Fc; assay: SPR (Biacore), hFGFR1b-Fc immobilized on CM5 chip, antibody injected at 0-200 nM
Protocol: as §2, §3

[5] = target: T5, recombinant rat/mouse FGFR2b-Fc (rat); assay: ELISA, plate coated with rat/mouse FGFR2b-Fc, anti-human IgG HRP
T5 construct: also called rat FGFR2b fused with murine Fc
Protocol: as §1

FGFR3b-Fc [6] = target: T2, FGFR3b-Fc; assay: ELISA, plate coated with HuFGFR3b
FGFR4-Fc [7] = target: T1, FGFR4-Fc; assay: ELISA, plate coated with HuFGFR4

binding result (FGFR4-Fc [1]): no binding
binding result (FGFR3b-Fc [2]): no binding
B1: Ab hu21-21 (antibody, V domains shown)
VH: EVQLVQSGAEVKKPGASVKVSCKASGYTFTNYWMHWVRQAPGQGLEWMGAIYPENGDINYNQKFKGRVTLTRDTSISTAYMELSRLRSDDTAVYYCTSRGDYWGQGTTVTVSS
VL: AIQLTQSPSSLSASVGDRVTITCSASSGLSYMSWYQQKPGKAPKLLIYDTSNLASGVPSRFSGSGSGTDFTLTISSLQPEDFATYYCQQWSSYPYTFGQGTKLEIK
notes: Humanized antibody based on Ab 21

binding result (FGFR4-Fc [1]): no binding
binding result (FGFR3b-Fc [2]): no binding
B2: Ab hu21-26 (antibody, human IgG1, V domains shown)
VH: EVQLVQSGAEVKKPGASVKVSCKASGYTFTNYWMHWVRQAPGQGLEWMGAIYPENRDINYNQKFKGRVTLTRDTSISTAYMELSRLRSDDTAVYYCTSRGDYWGQGTTVTVSS
VL: AIQLTQSPSSLSASVGDRVTITCSASSGLSYMSWYQQKPGKAPKLLIYDTSNLASGVPSRFSGSGSGTDFTLTISSLQPEDFATYYCQQWSSYPYTFGQGTKLEIK
notes: Humanized antibody with human IgG1; The VH equals that of hu21-21 except for G56R; also called afhu21-26 (afucosylated version)

EC50 (read off the curve) (cyno FGFR2b-Fc): ~0.6 nM
Kd [3]: 3.69 nM
koff [4]: 0.000235 s⁻¹
kon [4]: 63800 M⁻¹ s⁻¹
EC50 (read off the curve) [5]: ~0.2 nM
B3: Ab 21c (antibody, V domains shown)
VH: EVQLHQSGTVLARPGASVKMSCKTSGYTFTNYWMHWIKQRPGQGLEWIGAIYPENGDINYNQKFKGKAKLTAVTSASTAYMDLSSLTNEDSAVYYCTSRGDYWGQGTTLTVSS
VL: QIVLTQSPAIMSASPGEKVTMTCSASSGLSYMSWYQQKPGSSPRLLIYDTSNLASGVPVRFSGSGSGTSYSLTISRMEAEDAATYYCQQWSSYPYTFGGGTKLEIK
notes: Chimeric antibody: mouse VH and VL fused to human heavy and light chain constant regions; also called chimeric Ab 21c

B4: Ab 21 (antibody, V domains shown)
VH: EVQLHQSGTVLARPGASVKMSCKTSGYTFTNYWMHWIKQRPGQGLEWIGAIYPENGDINYNQKFKGKAKLTAVTSASTAYMDLSSLTNEDSAVYYCTSRGDYWGQGTTLTVSS
VL: QIVLTQSPAIMSASPGEKVTMTCSASSGLSYMSWYQQKPGSSPRLLIYDTSNLASGVPVRFSGSGSGTSYSLTISRMEAEDAATYYCQQWSSYPYTFGGGTKLEIK
notes: Mouse monoclonal antibody from a hybridoma; also called mouse Ab 21
binding result (FGFR3b-Fc [6]): no binding (tested: about 10^-7.3 M (about 5e-8 M))
binding result (FGFR4-Fc [7]): no binding (tested: about 10^-7.3 M (about 5e-8 M))
